Data as given in publication PMC4407014 (Immunology and Cell Biology, 2014).

Molecular target: Recombinant human CD4 (crystallisation construct) (Homo sapiens, UniProt P01730)
Test: crystal structure

B1: Fab fragment of BT-061 (tregalizumab) (Fab, V domains shown)
VH: EEQLVESGGGLVKPGGSLRLSCAASGFSFSDCRMYWLRQAPGKGLEWIGVISVKSENYGANYAESVRGRFTISRDDSKNTVYLQMNSLKTEDTAVYYCSASYYRYDVGAWFAYWGQGTLVTVSS
VL: DIVMTQSPDSLAVSLGERATINCRASKSVSTSGYSYIYWYQQKPGQPPKLLIYLASILESGVPDRFSGSGSGTDFTLTISSLQAEDVAVYYCQHSRELPWTFGQGTKVEIK
- binding result: binds
